{
  "source": "patent US20120252718",
  "target": "cytochrome c (UniProt P62894)",
  "sequence (P62894 2-105)": "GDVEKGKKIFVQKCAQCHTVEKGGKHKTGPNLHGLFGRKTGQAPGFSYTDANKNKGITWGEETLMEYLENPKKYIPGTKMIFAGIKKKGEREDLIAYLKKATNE",
  "details": "Cy3 fluorescence quenching, hyperbolic fit; cytochrome c source for this assay not stated",
  "data": [
    {"substance": "tRNACys 5'-Cy3", "values": [
      {"measurement": "Kd", "result": 3.5, "unit": "µM"}
    ]}
  ]
}
